Laboratory results reported in the RNAGym collection of RNA variant scans (doi:10.1021/acssynbio.7b00057).

B1: Pistol ribozyme (parent)
chain: GGGUCGUUGUUCCAUAAUCGCGUGGAUAUGGCACGCAAGUUUCUACCGGGCACCGUAAAUGUCCGACUGGAGCCGUUCGGGCGGCUAUAAACAGACCUCAGGCCCGAAGCGUGGCGGCACCUGCCGCCGGUGGUAAAAAAGAUCGGAAGAGCACACGUCU

Variants of: B1
Assay: aptazyme ON/OFF ratio, guanine; higher = stronger switching; co-transcriptional cleavage with and without guanine

Variant	aptazyme ON/OFF ratio
G9C U10A U11A C13G	1.05
G9C U10A U11A C13A	1.22
G9A U10A U11G C12A	1.02
G9A U10A U11G C12G	1.16
G9A U10A U11G C12U	1.42
G9A U10C C13G	1.03
G9A U10C C13A	1.08
G9A U10C C13U	1.23
G9A U10C U11A C13U	1.3
G9A U10C U11A C13G	1.14
G9A U10C U11A C13A	1.41
G9C U10C C12G C13A	1.06
G9C U10C C12G C13U	1.09
G9C U10C C12G C13G	1.09
G9A U10C C12G C13G	1.23
G9A U10C C12G C13A	1.23
G9A U10C C12G C13U	1.31
G9C U10A U11G	2.06
G9C U10A U11C	1.06
G9C U10A U11A	2.14
G9A U10G U11A C12U C13U	1.24
G9A U10G U11A C12U C13A	1.21
G9A U10G U11A C12U C13G	1.2
G9C U10C U11A C12A C13G	1.07

Variant	aptazyme ON/OFF ratio
G9C U10C U11A C12A C13U	1.11
G9C U10C U11A C12A C13A	1.06
G9A U11G C12G C13U	1.15
G9A U11G C12G C13A	1.18
G9A U11G C12G C13G	1.3
G9A U10G U11C C12A C13G	1.15
G9A U10G U11C C12A C13U	1.25
G9A U10G U11C C12A C13A	1.18
G9A U10A U11G C12U C13G	1.28
G9A U10A U11G C12U C13U	1.22
G9A U10A U11G C12U C13A	1.34
G9C U10C U11C	0.976
G9C U10C U11A	1.12
G9A U10C C12A C13U	1.19
G9A U10C C12A C13A	1.46
G9A U10C C12A C13G	1.29
G9A U10G U11A C12A C13G	1.09
G9A U10G U11A C12A C13U	1.1
G9A U10G U11A C12A C13A	1.08
G9C U10A U11G C12U C13A	1.08
G9C U10A U11G C12U C13G	1.16
G9C U10A U11G C12U C13U	1.26
G9C U10C	1.52
G9C U10A	1.98

Variant	aptazyme ON/OFF ratio
G9C U10A C12A C13U	1.23
G9C U10A C12A C13G	1.16
G9C U10A C12A C13A	1.21
G9A U10G U11A C12G C13U	1.53
G9A U10G U11A C12G C13G	1.45
G9A U10G U11A C12G C13A	1.02
G9C U10A U11A C12G C13G	1.27
G9C U10A U11A C12G C13A	1.31
G9C U10A U11A C12G C13U	1.38
G9A U10C U11G C12U	1.52
G9A U10C U11G C12G	1.18
G9A U10C U11G C12A	1.03
G9C C12A	1.38
G9C C12U	1.07
G9C C12G	1.35
G9A U11C C12U C13U	1.55
G9A U11C C12U C13A	1.41
G9A U11C C12U C13G	1.38
G9C U10A U11C C13A	1.09
G9C U10A U11C C13U	1.06
G9C U10A U11C C13G	1.04
G9C U10C U11A C12U C13A	1.08
G9C U10C U11A C12U C13G	1.1
G9C U10C U11A C12U C13U	1.06

Variant	aptazyme ON/OFF ratio
G9C C13U	1.07
G9C C13G	1.03
G9C C13A	1.02
G9A U10C U11G C12U C13G	1.43
G9A U10C U11G C12U C13A	1.37
G9A U10C U11G C12U C13U	1.4
G9C U10C U11C C12G C13A	1.08
G9C U10C U11C C12G C13U	1.04
G9C U10C U11C C12G C13G	1.05
G9A U11G	2.2
G9A U11A	2.53
G9A U11C	1.12
G9A U10A U11G C13A	1.34
G9A U10A U11G C13U	1.51
G9A U10A U11G C13G	1.11
G9C U10C U11C C12A	1.04
G9C U10C U11C C12G	1.04
G9C U10C U11C C12U	1.03
G9C U10A U11G C13G	1.09
G9C U10A U11G C13A	1.21
G9C U10A U11G C13U	1.35
G9A U10G U11A	1.06
G9A U10G U11C	1.1
G9A U10G U11G	1.11

Variant	aptazyme ON/OFF ratio
G9A U10C U11A C12A	1.67
G9A U10C U11A C12G	1.48
G9A U10C U11A C12U	1.78
G9A U10C U11G C13G	1.18
G9A U10C U11G C13A	1.39
G9A U10C U11G C13U	1.39
G9C U10A U11G C12A C13A	1.06
G9C U10A U11G C12A C13U	1.17
G9C U10A U11G C12A C13G	1.17
G9A U10A U11C C12U C13A	1.34
G9A U10A U11C C12U C13U	1.26
G9A U10A U11C C12U C13G	1.36
G9A U10A U11G C12A C13A	1.07
G9A U10A U11G C12A C13U	1.26
G9A U10A U11G C12A C13G	1.28
G9C U10C U11A C12A	1.07
G9C U10C U11A C12U	1.13
G9C U10C U11A C12G	1.14
G9C U10C C12U C13G	1.06
G9C U10C C12U C13A	1.07
G9C U10C C12U C13U	1.07
G9C C12A C13G	1.1
G9C C12A C13A	1.29
G9C C12A C13U	1.35

Variant	aptazyme ON/OFF ratio
G9A U11A C12A C13G	1.29
G9A U11A C12A C13U	1.36
G9A U11A C12A C13A	1.33
G9C U10C U11C C12A C13A	1.03
G9C U10C U11C C12A C13G	1.01
G9C U10C U11C C12A C13U	0.997
G9C U10C C12A C13U	1.05
G9C U10C C12A C13A	1.03
G9C U10C C12A C13G	1.06
G9C U10C U11A C12G C13G	1.19
G9C U10C U11A C12G C13U	1.22
G9C U10C U11A C12G C13A	1.19
G9A U10G U11A C13U	1.05
G9A U10G U11A C13A	1.01
G9A U10G U11A C13G	1.04
G9C U10A C12U C13A	1.24
G9C U10A C12U C13U	1.07
G9C U10A C12U C13G	1.17
G9A U10G U11G C12G C13A	1.16
G9A U10G U11G C12G C13G	1.22
G9A U10G U11G C12G C13U	1.15
G9A U10C	3.12
G9A U10G	3.45
G9C U10A U11G C12A	1.06

Variant	aptazyme ON/OFF ratio
G9C U10A U11G C12U	1.37
G9C U10A U11G C12G	1.23
G9A U11C C13A	1.03
G9A U11C C13U	1.11
G9A U11C C13G	1.11
G9A U10G U11G C12G	1.25
G9A U10G U11G C12A	1.11
G9A U10G U11G C12U	1.48
G9A U10C U11C C13A	1.02
G9A U10C U11C C13U	1.01
G9A U10C U11C C13G	1.07
G9C U10A U11C C12G C13G	1.44
G9C U10A U11C C12G C13A	1.32
G9C U10A U11C C12G C13U	1.24
G9C U10A U11C C12U	1.13
G9C U10A U11C C12G	1.18
G9C U10A U11C C12A	1.48
G9A U10G C13G	1.15
G9A U10G C13U	1.52
G9A U10G C13A	1.3
G9A U11G C12A C13U	1.32
G9A U11G C12A C13G	1.31
G9A U11G C12A C13A	1.18
